Measured values reported in paper PMC9482650, “Quantitative fragmentomics allow affinity mapping of interactomes” (Nature Communications, 2022).

T1: PDZD2_2, O15018
T1 sequence (O15018 329-429, limits assumed, looked up): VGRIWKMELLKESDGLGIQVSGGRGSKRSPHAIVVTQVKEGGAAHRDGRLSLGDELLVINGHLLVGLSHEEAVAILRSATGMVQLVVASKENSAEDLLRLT

T2: ARHGAP21, Q5T5U3
T2 sequence (Q5T5U3 45-169, limits assumed, looked up): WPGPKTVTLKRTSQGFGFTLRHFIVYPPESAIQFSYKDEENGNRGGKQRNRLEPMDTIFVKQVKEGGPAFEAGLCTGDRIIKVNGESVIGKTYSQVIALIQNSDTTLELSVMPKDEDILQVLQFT

T3: APBA1_1, Q02410
T3 sequence (Q02410 651-752, limits assumed, looked up): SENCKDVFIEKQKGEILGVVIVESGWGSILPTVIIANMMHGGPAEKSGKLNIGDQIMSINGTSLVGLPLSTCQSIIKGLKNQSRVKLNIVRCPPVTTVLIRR

T4: DLG3_3, Q92796
T4 sequence (Q92796 374-475, limits assumed, looked up): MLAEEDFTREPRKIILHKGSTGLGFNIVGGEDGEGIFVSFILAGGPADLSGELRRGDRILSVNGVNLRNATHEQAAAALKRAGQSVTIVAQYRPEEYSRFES

T5: APBA1_2, Q02410
T5 sequence (Q02410 742-832, limits assumed, looked up): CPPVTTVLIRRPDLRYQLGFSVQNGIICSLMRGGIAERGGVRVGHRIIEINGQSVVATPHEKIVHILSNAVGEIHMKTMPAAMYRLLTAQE

T6: MPP7, Q5T2T1
T6 sequence (Q5T2T1 134-230, limits assumed, looked up): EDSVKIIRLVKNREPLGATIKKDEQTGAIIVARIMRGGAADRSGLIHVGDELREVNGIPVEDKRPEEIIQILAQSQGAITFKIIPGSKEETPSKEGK

T7: TX1BP3, O14907
T7 sequence (O14907 10-122, limits assumed, looked up): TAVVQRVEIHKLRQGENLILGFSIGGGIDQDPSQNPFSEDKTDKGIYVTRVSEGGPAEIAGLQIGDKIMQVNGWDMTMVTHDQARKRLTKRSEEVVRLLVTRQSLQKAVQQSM

T8: NHERF3_1, Q5T2W1
T8 sequence (Q5T2W1 4-100, limits assumed, looked up): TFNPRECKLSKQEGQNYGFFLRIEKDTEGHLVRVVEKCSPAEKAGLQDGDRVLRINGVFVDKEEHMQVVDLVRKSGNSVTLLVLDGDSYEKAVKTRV

T9: MPDZ_5, O75970
T9 sequence (O75970 695-796, limits assumed, looked up): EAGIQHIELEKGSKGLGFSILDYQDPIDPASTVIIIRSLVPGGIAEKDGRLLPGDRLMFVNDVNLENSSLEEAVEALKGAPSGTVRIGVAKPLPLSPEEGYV

T10: MPDZ_10, O75970
T10 sequence (O75970 1624-1722, limits assumed, looked up): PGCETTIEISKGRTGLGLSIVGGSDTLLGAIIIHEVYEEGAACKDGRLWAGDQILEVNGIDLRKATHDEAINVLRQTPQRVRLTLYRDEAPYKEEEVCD


Experiments:
Assay in all cases: holdup assay
Parameters in all cases: key: below the threshold = too weak to quantify, mostly under pKd 3.1 to 4
Settings in all cases: plain residues with an end cap or a label only (N-terminal biotin on a linker: ado-ado)
[1] = target: MAST2, Q6P0Q8
[2] = target: GRIP2_5, Q9C0E4
[3] = target: LDB3, O75112
[4] = target: NHERF4_2, Q86UT5
[5] = target: T1, PDZD2_2, O15018
[6] = target: SCRIB_2, Q14160
[7] = target: PARD3_3, Q8TEW0
[8] = target: DLG4_1, P78352
[9] = target: T2, ARHGAP21, Q5T5U3
[10] = target: GRID2IP_2, A4D2P6
[11] = target: IL16_1, Q14005
[12] = target: NOS1, P29475
[13] = target: T3, APBA1_1, Q02410
[14] = target: T4, DLG3_3, Q92796
[15] = target: T5, APBA1_2, Q02410
[16] = target: T6, MPP7, Q5T2T1
[17] = target: PICK1, Q9NRD5
[18] = target: NHERF4_4, Q86UT5
[19] = target: T7, TX1BP3, O14907
[20] = target: T8, NHERF3_1, Q5T2W1
[21] = target: NHERF2_2, Q15599
[22] = target: T9, MPDZ_5, O75970
[23] = target: GRIP2_3, Q9C0E4
[24] = target: MAGI2_3, Q86UL8
[25] = target: T10, MPDZ_10, O75970
[26] = target: Inadl_4, Q8NI35
[27] = target: MAGI1_1, Q96QZ7
Sequence of MAGI1_1, Q96QZ7 (Q96QZ7 1-106): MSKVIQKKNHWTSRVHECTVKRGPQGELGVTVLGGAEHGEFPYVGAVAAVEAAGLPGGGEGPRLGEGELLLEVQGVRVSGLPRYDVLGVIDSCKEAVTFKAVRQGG

Sequence of MAGI2_3, Q86UL8 (Q86UL8 600-682): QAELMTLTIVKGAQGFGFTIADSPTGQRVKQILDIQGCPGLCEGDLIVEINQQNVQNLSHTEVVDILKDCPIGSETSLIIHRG
Sequence of MAST2, Q6P0Q8 (Q6P0Q8 1099-1202): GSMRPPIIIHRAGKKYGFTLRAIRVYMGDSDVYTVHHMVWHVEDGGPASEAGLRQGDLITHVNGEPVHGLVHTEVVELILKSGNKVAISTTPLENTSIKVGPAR
Sequence of NHERF4_2, Q86UT5 (Q86UT5 220-308): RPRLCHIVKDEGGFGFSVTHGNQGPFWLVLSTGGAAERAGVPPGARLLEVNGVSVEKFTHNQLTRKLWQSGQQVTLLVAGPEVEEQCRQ
Sequence of NHERF2_2, Q15599 (Q15599 142-238): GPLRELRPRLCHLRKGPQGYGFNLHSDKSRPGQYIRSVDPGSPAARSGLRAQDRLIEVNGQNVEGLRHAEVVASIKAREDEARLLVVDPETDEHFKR
Sequence of DLG4_1, P78352 (P78352 62-152): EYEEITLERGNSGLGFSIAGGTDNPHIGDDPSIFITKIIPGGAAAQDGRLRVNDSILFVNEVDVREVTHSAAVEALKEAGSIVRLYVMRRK
Sequence of SCRIB_2, Q14160 (Q14160 857-960): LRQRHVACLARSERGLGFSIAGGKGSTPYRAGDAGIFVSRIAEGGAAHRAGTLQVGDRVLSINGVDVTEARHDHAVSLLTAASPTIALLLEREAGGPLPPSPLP
Sequence of NHERF4_4, Q86UT5 (Q86UT5 464-550): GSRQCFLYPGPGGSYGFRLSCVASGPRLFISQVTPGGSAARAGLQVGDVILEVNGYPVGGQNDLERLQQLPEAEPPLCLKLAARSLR
Sequence of PICK1, Q9NRD5 (Q9NRD5 17-115): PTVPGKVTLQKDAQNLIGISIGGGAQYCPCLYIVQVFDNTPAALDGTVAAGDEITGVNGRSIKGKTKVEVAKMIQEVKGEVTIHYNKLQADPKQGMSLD
Sequence of PARD3_3, Q8TEW0 (Q8TEW0 582-685): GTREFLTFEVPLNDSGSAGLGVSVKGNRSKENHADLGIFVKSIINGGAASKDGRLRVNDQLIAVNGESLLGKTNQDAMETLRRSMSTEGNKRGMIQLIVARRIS
Sequence of GRIP2_5, Q9C0E4 (Q9C0E4 544-642): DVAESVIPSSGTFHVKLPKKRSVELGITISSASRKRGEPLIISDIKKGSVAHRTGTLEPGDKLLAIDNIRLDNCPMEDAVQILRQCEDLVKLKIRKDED
Sequence of GRID2IP_2, A4D2P6 (A4D2P6 272-370): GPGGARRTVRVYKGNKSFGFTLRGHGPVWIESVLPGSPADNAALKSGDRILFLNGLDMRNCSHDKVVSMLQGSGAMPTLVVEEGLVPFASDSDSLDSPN
Sequence of NOS1, P29475 (P29475 9-101): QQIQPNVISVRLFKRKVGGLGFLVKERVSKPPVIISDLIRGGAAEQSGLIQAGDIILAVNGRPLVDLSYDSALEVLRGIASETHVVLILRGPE
Sequence of IL16_1, Q14005 (Q14005 210-306): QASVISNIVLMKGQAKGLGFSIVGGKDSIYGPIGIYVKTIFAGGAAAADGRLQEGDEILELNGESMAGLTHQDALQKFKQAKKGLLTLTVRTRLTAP
Sequence of LDB3, O75112 (O75112 1-94): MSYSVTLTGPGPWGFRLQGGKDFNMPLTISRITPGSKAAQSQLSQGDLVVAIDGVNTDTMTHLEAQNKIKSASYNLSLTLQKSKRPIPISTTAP
Sequence of Inadl_4, Q8NI35 (Q8NI35 547-651): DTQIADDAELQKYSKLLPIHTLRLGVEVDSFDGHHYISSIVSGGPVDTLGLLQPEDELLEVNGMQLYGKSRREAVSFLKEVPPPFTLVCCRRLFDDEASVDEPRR
Sequence of GRIP2_3, Q9C0E4 (Q9C0E4 238-339): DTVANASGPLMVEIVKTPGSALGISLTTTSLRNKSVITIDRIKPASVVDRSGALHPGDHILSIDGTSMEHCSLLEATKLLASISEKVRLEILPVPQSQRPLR

Row | Binder | pKd [1] | pKd [2] | pKd [3] | pKd [4] | pKd [5] | pKd [6] | pKd [7] | pKd [8] | pKd [9] | pKd [10] | pKd [11] | pKd [12] | pKd [13] | pKd [14] | pKd [15] | pKd [16] | pKd [17] | pKd [18] | pKd [19] | pKd [20] | also measured
1 | SFISKKEWYV [NECTIN1, Q15223] | 4.44 | below the threshold | below the threshold | below the threshold | 5.02 | below the threshold | 4.53 | below the threshold | 4.04 | below the threshold | below the threshold | 3.6 | below the threshold | below the threshold | 3.82 | 5.11 | 4.24 | below the threshold | below the threshold | 4.28 | pKd [21]: below the threshold; pKd [22]: 4.61; pKd [23]: below the threshold; pKd [24]: below the threshold; pKd [25]: below the threshold; pKd [26]: below the threshold; pKd [27]: below the threshold
2 | LKDDELKTKL [SLCO1A2, P46721] | 5.28 | below the threshold | below the threshold | below the threshold | below the threshold | below the threshold | below the threshold | below the threshold | 3.91 | 4.55 | below the threshold | 3.5 | below the threshold | below the threshold | below the threshold | below the threshold | below the threshold | below the threshold | below the threshold | 4.87 | pKd [21]: 4.67; pKd [22]: below the threshold; pKd [23]: below the threshold; pKd [24]: below the threshold; pKd [25]: below the threshold; pKd [26]: below the threshold; pKd [27]: below the threshold
3 | DRIQSCLSDA [SBF1, O95248] | 4.35 | below the threshold | below the threshold | below the threshold | below the threshold | below the threshold | below the threshold | below the threshold | below the threshold | below the threshold | below the threshold | below the threshold | below the threshold | below the threshold | below the threshold | below the threshold | below the threshold | below the threshold | 4.04 | below the threshold | pKd [21]: below the threshold; pKd [22]: below the threshold; pKd [23]: below the threshold; pKd [24]: below the threshold; pKd [25]: below the threshold; pKd [26]: below the threshold; pKd [27]: below the threshold
